Reference: patent publication US8785600B2, “Anti-GCC antibody molecules and related compositions and methods” (Millennium Pharmaceuticals, Inc., priority 2009, dated 2014)

Legend:
mouse GCC = target: T1, mouse GCC (Mus musculus, UniProt Q3UWA6); assay: Cross-reactivity with GCC orthologs (ELISA); format: binding
T1 sequence (Q3UWA6 20-1072): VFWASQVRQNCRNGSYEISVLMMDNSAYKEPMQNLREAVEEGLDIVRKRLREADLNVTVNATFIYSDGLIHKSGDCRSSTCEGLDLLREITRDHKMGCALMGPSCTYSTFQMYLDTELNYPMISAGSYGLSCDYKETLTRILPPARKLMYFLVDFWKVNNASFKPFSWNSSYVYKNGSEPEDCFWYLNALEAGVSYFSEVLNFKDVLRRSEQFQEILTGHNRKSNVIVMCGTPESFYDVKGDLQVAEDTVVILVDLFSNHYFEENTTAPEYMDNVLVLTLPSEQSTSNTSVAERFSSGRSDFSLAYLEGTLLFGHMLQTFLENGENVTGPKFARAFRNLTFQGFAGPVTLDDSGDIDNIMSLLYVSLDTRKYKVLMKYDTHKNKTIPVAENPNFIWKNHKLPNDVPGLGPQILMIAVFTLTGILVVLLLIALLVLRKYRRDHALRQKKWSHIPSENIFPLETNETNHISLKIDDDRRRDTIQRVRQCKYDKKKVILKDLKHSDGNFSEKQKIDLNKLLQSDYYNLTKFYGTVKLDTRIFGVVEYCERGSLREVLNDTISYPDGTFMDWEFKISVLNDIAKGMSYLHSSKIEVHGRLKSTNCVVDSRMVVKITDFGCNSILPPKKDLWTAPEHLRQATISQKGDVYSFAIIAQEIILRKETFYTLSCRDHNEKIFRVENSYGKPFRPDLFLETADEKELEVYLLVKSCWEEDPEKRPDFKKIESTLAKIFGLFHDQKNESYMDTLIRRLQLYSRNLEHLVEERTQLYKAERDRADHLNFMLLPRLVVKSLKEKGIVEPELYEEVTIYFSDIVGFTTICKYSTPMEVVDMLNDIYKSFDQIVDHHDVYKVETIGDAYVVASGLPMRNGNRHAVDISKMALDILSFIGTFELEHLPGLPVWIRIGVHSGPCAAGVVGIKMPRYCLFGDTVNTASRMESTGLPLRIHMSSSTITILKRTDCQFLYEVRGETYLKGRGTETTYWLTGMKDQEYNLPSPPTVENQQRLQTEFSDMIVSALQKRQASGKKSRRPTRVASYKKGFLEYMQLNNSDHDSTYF
Description: (§1) FIG. 4 depicts ELISA binding assays to test antibody cross-reactivity of GCC orthologs.

rat GCC = target: T2, rat GCC (Rattus norvegicus, UniProt P23897); assay: Cross-reactivity with GCC orthologs (ELISA); format: binding
T2 sequence (P23897 23-1072): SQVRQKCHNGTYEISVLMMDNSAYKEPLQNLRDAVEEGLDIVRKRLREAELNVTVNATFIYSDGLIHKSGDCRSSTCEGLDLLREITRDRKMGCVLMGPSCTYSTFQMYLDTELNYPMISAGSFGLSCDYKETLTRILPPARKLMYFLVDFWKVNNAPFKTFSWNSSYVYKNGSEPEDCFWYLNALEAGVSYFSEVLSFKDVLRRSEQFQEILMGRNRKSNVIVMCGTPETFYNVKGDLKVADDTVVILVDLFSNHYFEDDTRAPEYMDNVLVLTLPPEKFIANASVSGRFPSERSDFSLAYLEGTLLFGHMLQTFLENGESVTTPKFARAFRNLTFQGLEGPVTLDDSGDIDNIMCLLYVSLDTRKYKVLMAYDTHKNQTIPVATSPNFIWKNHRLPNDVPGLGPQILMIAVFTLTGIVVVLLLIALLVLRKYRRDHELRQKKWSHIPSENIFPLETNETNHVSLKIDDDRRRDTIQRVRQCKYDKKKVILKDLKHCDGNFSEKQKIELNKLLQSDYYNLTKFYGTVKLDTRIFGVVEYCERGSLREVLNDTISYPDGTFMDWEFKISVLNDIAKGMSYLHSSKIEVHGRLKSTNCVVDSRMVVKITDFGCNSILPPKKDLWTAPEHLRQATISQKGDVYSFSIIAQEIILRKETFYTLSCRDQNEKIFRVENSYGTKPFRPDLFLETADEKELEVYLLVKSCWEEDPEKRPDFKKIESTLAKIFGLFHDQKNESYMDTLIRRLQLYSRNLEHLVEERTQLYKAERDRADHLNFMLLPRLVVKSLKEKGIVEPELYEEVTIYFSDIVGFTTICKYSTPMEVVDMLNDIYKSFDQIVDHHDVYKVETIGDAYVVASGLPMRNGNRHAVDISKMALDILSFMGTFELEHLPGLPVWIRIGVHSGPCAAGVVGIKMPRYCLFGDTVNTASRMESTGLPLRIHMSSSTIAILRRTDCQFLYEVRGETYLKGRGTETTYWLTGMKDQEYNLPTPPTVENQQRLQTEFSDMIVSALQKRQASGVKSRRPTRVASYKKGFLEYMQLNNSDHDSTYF
Description: as §1

Substance: 5F9: Human anti-GCC mAb (IgG2, kappa) of hybridoma 5F9, ATCC PTA-8132; VH SEQ ID NO:18, VL SEQ ID NO:20; also engineered as IgG1
- Binding to mouse GCC (mouse GCC): does not bind
- Binding to rat GCC (rat GCC): does not bind
